The record followed here is patent US20250041437A1 (SUN PHARMA ADVANCED RESEARCH, published 2025).

B1: HM2 LM2 variant of humanized anti-MUC1 antibody SP66 (antibody, V domains shown)
VH: EIQLVQSGAEVKKPGSSVKVSCKVTGHSITRGSSWHWMRQAPGQGLEWIGYIHYGGGTSYNPSLKSRITITRDTSTNTAYMELSSLRSEDTAFYFCARYSYDITYRWFFDVWGQGTLVTVSS
VL: DIQMTQSPSTLSASVGDRVTITCRASQNIGTSIHWYQQKPGKAPKLLIKRASESISGVPSRFSGSGSGTEFTLTISSLQPDDFATYYCQQNNNWPLTFGQGTKVEVK
notes: Humanized IgG expressed in CHO cells; only variable domains tied to the variant
B2: humanized IgG1 anti-MUC1-SEA mAb (HM5 LM4) (antibody, V domains shown)
VH: EIQLVQSGAEVKKPGSSVKVSCKVTGHSITRGSSWHWMRQAPGQGLEWIGYIHYGGGTSYNPSLKSRITITRDTSTNTFYMELSSLRSEDTAFYFCARYSYDITYRWFFDVWGQGTLVTVSS
VL: DIQMTQSPSTLSASVGDRVTITCRASQNIGTSIHWYQQKPGKAPKLLIKYASESISGVPSRFSGSGSGTEFTLTISSLQPDDFATYYCQQNNNWPLTFGQGTKVEIKR
notes: also called Humanized anti-MUC1 SEA IgG1; humanized IgG anti-MUC1-SEA mAb
B3: HM3 LM2 variant of humanized anti-MUC1 antibody SP66 (antibody, V domains shown)
VH: EIQLVQSGAEVKKPGSSVKVSCKVTGHSITRGSSWHWMRQAPGQGLEWIGYIHYGGGTSYNPSLKSRATLTRDTSTNTAYMELSSLRSEDTAFYFCARYSYDITYRWFFDVWGQGTLVTVSS
VL: DIQMTQSPSTLSASVGDRVTITCRASQNIGTSIHWYQQKPGKAPKLLIKRASESISGVPSRFSGSGSGTEFTLTISSLQPDDFATYYCQQNNNWPLTFGQGTKVEVK
notes: as for B1
B4: HM4 LM3 variant of humanized anti-MUC1 antibody SP66 (antibody, V domains shown)
VH: EIQLVQSGAEVKKPGSSVKVSCKVTGHSITRGSSWHWMRQAPGQGLEWIGYIHYGGGTSYNPSLKSRATLTRDTSTNTFYMELSSLRSEDTAFYFCARYSYDITYRWFFDVWGQGTLVTVSS
VL: DIQMTQSPSTLSASVGDRVTITCRASQNIGTSIHWYQQKPGKAPKLLIKYASESISGVPSRFSGSGSGTEFTLTISSLQPDDFATYYCQQNNNWPLTFGQGTKVEVK
notes: as for B1
B5: HM2 LM3 variant of humanized anti-MUC1 antibody SP66 (antibody, V domains shown)
VH: EIQLVQSGAEVKKPGSSVKVSCKVTGHSITRGSSWHWMRQAPGQGLEWIGYIHYGGGTSYNPSLKSRITITRDTSTNTAYMELSSLRSEDTAFYFCARYSYDITYRWFFDVWGQGTLVTVSS
VL: DIQMTQSPSTLSASVGDRVTITCRASQNIGTSIHWYQQKPGKAPKLLIKYASESISGVPSRFSGSGSGTEFTLTISSLQPDDFATYYCQQNNNWPLTFGQGTKVEVK
notes: as for B1
B6: HM5 LM2 variant of humanized anti-MUC1 antibody SP66 (antibody, V domains shown)
VH: EIQLVQSGAEVKKPGSSVKVSCKVTGHSITRGSSWHWMRQAPGQGLEWIGYIHYGGGTSYNPSLKSRITITRDTSTNTFYMELSSLRSEDTAFYFCARYSYDITYRWFFDVWGQGTLVTVSS
VL: DIQMTQSPSTLSASVGDRVTITCRASQNIGTSIHWYQQKPGKAPKLLIKRASESISGVPSRFSGSGSGTEFTLTISSLQPDDFATYYCQQNNNWPLTFGQGTKVEVK
notes: as for B1
B7: HM3 LM3 variant of humanized anti-MUC1 antibody SP66 (antibody, V domains shown)
VH: EIQLVQSGAEVKKPGSSVKVSCKVTGHSITRGSSWHWMRQAPGQGLEWIGYIHYGGGTSYNPSLKSRATLTRDTSTNTAYMELSSLRSEDTAFYFCARYSYDITYRWFFDVWGQGTLVTVSS
VL: DIQMTQSPSTLSASVGDRVTITCRASQNIGTSIHWYQQKPGKAPKLLIKYASESISGVPSRFSGSGSGTEFTLTISSLQPDDFATYYCQQNNNWPLTFGQGTKVEVK
notes: as for B1
B8: HM4 LM2 variant of humanized anti-MUC1 antibody SP66 (antibody, V domains shown)
VH: EIQLVQSGAEVKKPGSSVKVSCKVTGHSITRGSSWHWMRQAPGQGLEWIGYIHYGGGTSYNPSLKSRATLTRDTSTNTFYMELSSLRSEDTAFYFCARYSYDITYRWFFDVWGQGTLVTVSS
VL: DIQMTQSPSTLSASVGDRVTITCRASQNIGTSIHWYQQKPGKAPKLLIKRASESISGVPSRFSGSGSGTEFTLTISSLQPDDFATYYCQQNNNWPLTFGQGTKVEVK
notes: as for B1
B9: HM5 LM3 variant of humanized anti-MUC1 antibody SP66 (antibody, V domains shown)
VH: EIQLVQSGAEVKKPGSSVKVSCKVTGHSITRGSSWHWMRQAPGQGLEWIGYIHYGGGTSYNPSLKSRITITRDTSTNTFYMELSSLRSEDTAFYFCARYSYDITYRWFFDVWGQGTLVTVSS
VL: DIQMTQSPSTLSASVGDRVTITCRASQNIGTSIHWYQQKPGKAPKLLIKYASESISGVPSRFSGSGSGTEFTLTISSLQPDDFATYYCQQNNNWPLTFGQGTKVEVK
notes: as for B1

The first test addresses T1, recombinant human MUC1-SEA (MUC1 antigen, Acrobiosystems, Cat: MU1-H52H9) (human, UniProt P15941 1039-1158).
T1 construct: Bought protein, captured on an anti-His chip (so His-tagged)
T1 sequence: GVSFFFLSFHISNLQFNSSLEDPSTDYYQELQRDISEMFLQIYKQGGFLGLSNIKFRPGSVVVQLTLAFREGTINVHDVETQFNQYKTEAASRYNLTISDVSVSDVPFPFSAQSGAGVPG
The test can be described thus: SPR; MUC1 antigen captured on anti-His CM5 chip, antibody as analyte. For orientation: SPR reads the build-up and loss of mass on a sensor chip optically.
The term Kd denotes a measure of binding affinity in units of concentration. For orientation: koff means a measure of how fast the partners let go of each other. In general, kon refers to the second-order rate constant of association. B1: the Kd worked out at 144 pM, the koff came out at 0.000255 s⁻¹ and the kon stood at 1.77e+06 M⁻¹ s⁻¹.
The corresponding values for B2 are 29.8 pM, 0.00015 s⁻¹ and 5.02e+06 M⁻¹ s⁻¹.
Take B3: the Kd was determined as 186 pM, the koff came to 0.000492 s⁻¹ and the kon is 2.65e+06 M⁻¹ s⁻¹.
Regarding B4, the Kd was found to be 82.6 pM, the koff was 0.000238 s⁻¹ and the kon turned out to be 2.88e+06 M⁻¹ s⁻¹.
Consider B5, for which the Kd worked out at 59.8 pM, the dissociation rate constant (koff) was determined as 0.000188 s⁻¹ and the kon amounted to 3.14e+06 M⁻¹ s⁻¹.
Turning to B6, the Kd turned out to be 44.4 pM, the koff worked out at 0.000213 s⁻¹ and the kon worked out at 4.8e+06 M⁻¹ s⁻¹.
With B7, the Kd was determined as 77.5 pM, the koff was found to be 0.00347 s⁻¹ and the association rate constant (kon) amounted to 4.47e+07 M⁻¹ s⁻¹.
For B8, the dissociation constant Kd was found to be 63.9 pM, the koff worked out at 0.000261 s⁻¹ and the on-rate (kon) was determined as 4.08e+06 M⁻¹ s⁻¹.
For B9, the Kd is 50 pM, the koff is 0.000198 s⁻¹ and the kon was 3.97e+06 M⁻¹ s⁻¹.

A further test has as its target T1, recombinant human MUC1-SEA (MUC1 …). The test can be described thus: SPR, single cycle kinetics; MUC1 antigen captured on anti-His CM5 chip.
On to B2, for which the Kd amounted to 39.7 pM, the koff amounted to 0.000281 s⁻¹ and the kon is 7.07e+06 M⁻¹ s⁻¹.
